Measured values as given in IntAct's records for PubMed 23468526.

B1: Moesin/ezrin/radixin homolog 1 (Drosophila melanogaster (Fruit fly)), P46150 (parent)
chain: MSPKALNVRVTTMDAELEFAIQSTTTGKQLFDQVVKTIGLREVWFFGLQYTDSKGDSTWIKLYKKVMNQDVKKENPLQFRFRAKFYPEDVAEELIQDITLRLFYLQVKNAILTDEIYCPPETSVLLASYAVQARHGDHNKTTHTAGFLANDRLLPQRVIDQHKMSKDEWEQSIMTWWQEHRSMLREDAMMEYLKIAQDLEMYGVNYFEIRNKKGTDLWLGVDALGLNIYEQDDRLTPKIGFPWSEIRNISFSEKKFIIKPIDKKAPDFMFFAPRVRINKRILALCMGNHELYMRRRKPDTIDVQQMKAQAREEKNAKQQEREKLQLALAARERAEKKQQEYEDRLKQMQEDMERSQRDLLEAQDMIRRLEEQLKQLQAAKDELELRQKELQAMLQRLEEAKNMEAVEKLKLEEEIMAKQMEVQRIQDEVNAKDEETKRLQDEVEDARRKQVIAAEAAAALLAASTTPQHHHVAEDENENEEELTNGDAGGDVSRDLDTDEHIKDPIEDRRTLAERNERLHDQLKALKQDLAQSRDETKETANDKIHRENVRQGRDKYKTLREIRKGNTKRRVDQFENM
partner: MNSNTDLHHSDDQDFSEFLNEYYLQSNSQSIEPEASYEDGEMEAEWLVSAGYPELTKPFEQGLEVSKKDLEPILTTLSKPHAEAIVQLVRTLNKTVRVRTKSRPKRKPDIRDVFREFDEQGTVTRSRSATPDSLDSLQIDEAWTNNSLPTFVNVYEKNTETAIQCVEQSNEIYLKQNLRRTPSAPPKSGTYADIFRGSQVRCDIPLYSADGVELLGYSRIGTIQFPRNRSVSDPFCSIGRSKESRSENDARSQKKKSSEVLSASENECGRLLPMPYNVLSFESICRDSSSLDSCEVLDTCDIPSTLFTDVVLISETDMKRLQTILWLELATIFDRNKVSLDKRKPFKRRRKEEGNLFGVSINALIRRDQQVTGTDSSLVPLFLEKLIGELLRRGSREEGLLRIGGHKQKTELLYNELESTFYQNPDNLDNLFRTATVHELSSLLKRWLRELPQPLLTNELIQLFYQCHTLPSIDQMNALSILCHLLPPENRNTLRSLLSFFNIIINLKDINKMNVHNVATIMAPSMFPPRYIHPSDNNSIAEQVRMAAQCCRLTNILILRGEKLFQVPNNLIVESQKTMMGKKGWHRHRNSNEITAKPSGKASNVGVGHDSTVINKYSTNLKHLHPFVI

Variants of: B1
Conditions: with conu_drome conu

Variant | effect of a mutation on the interaction
MSPKALNVRVTTMDAELEFAIQSTTTGKQLFDQVVKTIGLREVWFFGLQYTDSKGDSTWIKLYKKVMNQDVKKENPLQFRFRAKFYPEDVAEELIQDITLRLFYLQVKNAILTDEIYCPPETSVLLASYAVQARHGDHNKTTHTAGFLANDRLLPQRVIDQHKMSKDEWEQSIMTWWQEHRSMLREDAMMEYLKIAQDLEMYGVNYFEIRNKKGTDLWLGVDALGLNIYEQDDRLTPKIGFPWSEIRNISFSEKKFIIKPIDKKAPDFMFFAPRVRINKRILALCMGNHELYMRRRKPDTIDVQQMKAQAREEKNAKQQEREKLQLALAARERAEKKQQEYEDRLKQMQEDMERSQRDLLEAQDMIRRLEEQLKQLQAAKDELELRQKELQAMLQRLEEAKNMEAVEKLKLEEEIMAKQMEVQRIQDEVNAKDEETKRLQDEVEDARRKQVIAAEAAAALLAASTTPQHHHVAEDENENEEELTNGDAGGDVSRDLDTDEHIKDPIEDRRTLAERNERLHDQLKALKQDLAQSRDETKETANDKIHRENVRQGRDKYKDLREIRKGNTKRRVDQFENM [T559D] | increasing interaction strength
